The target in assay [1] is CH235 UCA2 (unmutated common ancestor of the CH235/CH235.12 lineage), IgG. As to the kind of experiment: SPR. To be noted: apparent KD, average of two measurements.
In assay [2] the target is Man5-enriched CH505TF.N279K Env on pseudovirus produced in 293S GnT1- cells (HIV-1 clade C, strain CH505 transmitted/founder). The settings on record: scale: fold less susceptible than the Man5-enriched double mutant.
Assay [3] concerns the target CH505TF.N279K.G458Y Env on pseudovirus produced in 293T cells (not Man5-enriched) (HIV-1 clade C, strain CH505 transmitted/founder).
Assay [4] has as its target Man5-enriched CH505TF.G458Y Env on pseudovirus produced in 293S GnT1- cells (HIV-1 clade C, strain CH505 transmitted/founder). To be noted: scale: fold less susceptible than the Man5-enriched double mutant.
Assay [5] has as its target Man5-enriched stabilized CH505TF.N279K.G458Y.SOSIP.664 Env trimer (made in 293S GnT1- cells) (HIV-1 clade C, strain CH505 transmitted/founder | HIV-1 clade A, strain BG505) (UniProt Q2N0S6).
For assay [6] the target is unchanged. As to the kind of experiment: cryo-EM structure; trimer at 1 mg/ml incubated with 4-5-fold molar excess of CH235 UCA2 Fab for 30-60 minutes, 0.085 mM dodecyl-maltoside; C3 symmetry, 4.2 Å.
Assay [7] concerns the target CH235 UCA2 (unmutated common ancestor of the CH235/CH235.12 lineage), IgG (human). As to the kind of experiment: SPR; Biacore 3000; CH235 UCA2 antibody captured (200-350 RU) by goat anti-human IgG Fc immobilised on a CM3 chip; SOSIP trimers 50-750 nM in HBS-EP+ injected 5 min at 50 ul/min, 10 min dissociation; 1:1 Langmuir model with local Rmax; apparent KD, average of two measurements. Background: In SPR one partner is held on a chip, and binding of the other changes the refractive index at the surface.

Setting [8] is: trimer produced in 293S GnT1- cells.
[9] abbreviates: trimer produced in Freestyle293 (293F) cells, parent: NB.

pKd: −log10 of the molar value.

Chain of CH235 UCA2 (unmutated common ancestor of the CH235/CH235.12 lineage), IgG (human) (heavy, as listed by the source, chain 1 of 2): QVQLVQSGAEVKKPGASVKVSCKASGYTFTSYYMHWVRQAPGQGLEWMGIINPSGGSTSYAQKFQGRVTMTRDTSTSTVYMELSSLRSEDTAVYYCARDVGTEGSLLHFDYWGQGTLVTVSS
Chain of CH235 UCA2 (unmutated common ancestor of the CH235/CH235.12 lineage), IgG (human) (light, as listed by the source, chain 2 of 2): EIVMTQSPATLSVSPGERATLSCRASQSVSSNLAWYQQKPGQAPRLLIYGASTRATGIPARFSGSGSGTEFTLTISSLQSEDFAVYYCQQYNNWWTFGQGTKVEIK

Consider “Man5-enriched stabilized parental CH505TF SOSIP.664 Env trimer (made in 293S GnT1- cells) (from UniProt Q2N0S6) G458Y”, for which the pKd in assay [1] (setting [8]) is 6.00. Turning to “CH235 UCA2 (unmutated common ancestor of the CH235/CH235.12 lineage), IgG (antibody)”, the neutralization in TZM-bl cells: fold less susceptible than the Man5-enriched double mutant came out at 92 in assay [2] and 973 in assay [4]. Moreover, the IC50 of neutralization of CH505TF.N279K.G458Y Env-pseudotyped virus that was not Man5-enriched, in TZM-bl cells in assay [3] turned out to be 9.2 µg/mL. The IC50 of neutralization of Man5-enriched (293S GnT1-) CH505TF.N279K.G458Y Env-pseudotyped virus in TZM-bl cells (full-length Env on virus, not the SOSIP) in assay [5] stood at 0.04 µg/mL. As for CH235 UCA2 Fab, in assay [6], the stoichiometry N (Fabs per Env trimer) was 3. For the substance “Man5-enriched stabilized parental CH505TF SOSIP.664 Env trimer (made in 293S GnT1- cells) (from UniProt Q2N0S6) N279K”, the pKd in assay [1] (setting [8]) was 7.55.

In the case of “CH505TF SOSIP.664 v4.1 (293F) N279K; G458Y”, the pKd in assay [1] (setting [9]) was 7.08. Still for that read-out and setting: the result for CH505TF SOSIP.664 v4.1 (293F) N279K reads 6.81. For “Man5-enriched stabilized CH505TF.N279K.G458Y.SOSIP.664 Env trimer (made in 293S GnT1- cells) (from UniProt Q2N0S6 1-860) (complex)”, in assay [7], the pKd is 8.05.

What is called pKd is the negative decadic logarithm of the Kd, by convention in mol/L.
